Measurements reported in FireProtDB (doi:10.1006/jmbi.1995.0323).

B1: Subtilisin inhibitor, P01006 (parent)
chain: MRNTGAGPSPSVSRPPPSAAPLSGAALAAPGDAPSALYAPSALVLTVGKGVSATTAAPERAVTLTCAPGPSGTHPAAGSACADLAAVGGDLNALTRGEDVMCPMVYDPVLLTVDGVWQGKRVSYERVFSNECEMNAHGSSVFAF

Variants of: B1
Details: Streptomyces albogriseolus, Thermal, DSC, reversible: yes, structure 3SSI, whole UniProt chain shown
[1] = pH 3.2, 53.36 °C, glycine 25 mM
[2] = pH 7, 82.21 °C, Sodium phosphate 25 mM

Variant | ddG of mutation (higher = less stable) [1] [kcal/mol] | unfolding free energy [1] [kcal/mol] | Tm (pH 3.2, glycine 25 mM) [°C] | change of melting temperature, mutant - wild type (higher = more stable) (pH 3.2, glycine 25 mM) [°C] | unfolding enthalpy (calorimetric) (pH 3.2, glycine 25 mM) [kcal/mol] | ddG of mutation (higher = less stable) [2] [kcal/mol] | unfolding free energy [2] [kcal/mol] | Tm (pH 9.5, glycine 25 mM) [°C] | change of melting temperature, mutant - wild type (higher = more stable) (pH 9.5, glycine 25 mM) [°C] | unfolding enthalpy (calorimetric) (pH 9.5, glycine 25 mM) [kcal/mol] | Tm (pH 7, Sodium phosphate 25 mM) [°C] | change of melting temperature, mutant - wild type (higher = more stable) (pH 7, Sodium phosphate 25 mM) [°C] | unfolding enthalpy (calorimetric) (pH 7, Sodium phosphate 25 mM) [kcal/mol] | ddG of mutation (higher = less stable) (pH 9.5, 80.7 °C, glycine 25 mM) [kcal/mol] | unfolding free energy (pH 9.5, 80.7 °C, glycine 25 mM) [kcal/mol]
M134A | 1.35 | 4.2 | 49.3 | -4.1 | 113 | 2.32 | 3.71 | 75.5 | -5.18 | 193 |  |  |  |  | 
M134L | -0.77 | 6.32 |  |  |  | -0.15 | 6.18 | 80.2 | -0.48 | 178 | 82.5 | 0.3 | 182 | 0.29 | 5.75
M134V | 1.35 | 4.2 | 49.1 | -4.3 | 107 | 1.84 | 4.19 | 76.4 | -4.33 | 184 | 78.6 | -3.6 | 179 | 2.22 | 3.82
M134I |  |  | 46.1 | -7.3 | 98.8 | 1.89 | 4.14 | 75.9 | -4.8 | 175 | 78.3 | -3.9 | 179 | 2.29 | 3.75
M134G |  |  |  |  |  |  |  | 66.3 | -14.4 | 187 | 68.6 | -13.6 | 191 |  | 
